Consider one molecule from patent US20110086089A1, “USE OF P27KIP1 FOR THE PREVENTION AND TREATMENT OF HEART FAILURE” (UNIVERSITY HEALTH NETWORK, priority 2008, published 2011).

One experiment concerns WT mice. Put plainly: Chronic Ang II infusion for 14 days with daily TAT.protein injection, WT mice. As to conditions: for FS / LVEDD / LVEF / LVESD / PWD: WT, echocardiography at 14 days. It counts as in vivo. An excerpt:
FIG. 5 is a series of graphs, blots and cell stainings showing CK2-alpha-prime is important for Ang II action in vivo. […] Transduction of recombinant active CK2-alpha-prime evokes cardiac hypertrophy in the absence of Ang II. (A) Heart-weight corrected for body-weight (left panel) and Masson-stain of myocardial cross sections (right panel). Mean±s.e.m., n=6-8. #P<0.01 vs sham saline. *P<0.01 vs sham saline. Scale bar, 2 mm. (B) Cell size analysis of adult cardiac myocytes isolated from 8-weeks-old mice. One hundred cells from three different mice were analyzed per group. Mean±s.e.m. #P<0.01 vs sham saline. *P<0.01 vs sham saline. **P<0.01 vs Ang II. (c) Determination of ANF/BNP mRNA levels by qRT-PCR. Mean±s.e.m., n=6-8. *P<0.05 vs sham saline. **P<0.05 vs Ang II. #P<0.05 vs sham saline. (D) Visualization of ectopic TAT-conjugated p27deltaPi by indirect immunofluorescence microscopy employing anti-His tag antibodies. Scale bar, 200 μm. (E) Left ventricular extracts (2-3 mg) were subjected to anti-CK2-alpha-prime immunocomplex kinase assays employing histone H1 substrate. Aliquots of kinase reactions were subjected to immunoblotting using antibodies as indicated on the left (top and middle panel). Levels of endogenously expressed or transduced proteins in total left ventricular heart tissue samples (60 μg) were analyzed by immunoblotting (bottom panel). Experiments to (E) were done twice with similar results.
To define whether CK2-alpha-prime -directed p27 turnover plays a role in vivo, the inventors chronically infused Ang II^72 and intraperitoneally injected recombinant TAT-conjugated CK2-alpha-prime and p27 variants in WT and p27^−/− mice (FIG. 9). […] These mice had normal LVEDD and LVESD when compared to Ang II-infused littermates (Table 3). […] CK2-alpha-prime activity and p27 destabilization were similar to their non-transduced Ang II-treated siblings (FIG. 5E).
(§1) Spontaneously beating cardiomyocytes from heart ventricles of neonatal rats were cultured and subjected to treatment with angiotensin II (Ang II). DMAT (2-dimethylamino-4,5,6,7-tetrabromo-1H-benzimidazol), DMSO, lactacystin and LLM were obtained from Calbiochem. Ang II was purchased from Sigma. Animal usage was in accordance with approved institutional animal care guidelines. Age-matched male WI C57BL/6 and p27^−/− mice were used in this study. For results shown in FIGS. 1 to 9: Ang II was chronically infused subcutaneously by osmotic pumps (model 2000, Alzet) at a dose of 1.4 μg/kg per minute for 14 days. TAT.proteins (10 mg/kg) were injected intraperitoneally once daily for 14 days. For results shown in FIGS. 10 to 12: Ang II was chronically infused subcutaneously by osmotic pumps (model 2000, Alzet) at a dose of 0.7 μg/kg per minute for 16 days. TAT.proteins (20 mg/kg) were injected intraperitoneally once daily for 8 days starting at day 8. Thoracic aortic banding (TAB) and pressure gradient measurements were performed as described^39.

For a further experiment, the system named is p27 KO mice. Put plainly: Chronic Ang II infusion for 14 days with daily TAT.protein injection, p27 KO mice. The class given is in vivo. Conditions: for FS / LVEDD / LVEF / LVESD / PWD: p27 KO, echocardiography at 14 days. As to the method:
(A) Heart-weight corrected for body-weight (left panel) and Masson-stain of myocardial cross sections (right panel). Mean±s.e.m., n=6-8. *P<0.01 vs sham saline. **P<0.01 vs Ang II. Scale bar, 2 mm. (B) Cell size analysis of adult cardiac myocytes isolated from 8-weeks-old mice. One hundred cells from three different mice were analyzed per group. Mean±s.e.m. *P<0.01 vs sham saline. **P<0.01 vs Ang II. (C) Determination of ANF/BNP mRNA levels by qRT-PCR. Mean±s.e.m., n=6-8. *P<0.01 vs sham saline. **P<0.01 vs Ang II. (D) CK2-alpha-prime-dependent kinase activity determined in whole left ventricular tissue samples. One typical result of two independent experiments is shown. (E, F) Ang II action induces apoptosis in p27^−/− mice. (E) Quantification of apoptotic cardiac myocytes (white arrowheads) by in situ TUNEL and GATA4 immunofluorescence histochemistry of left ventricular specimen. Mean±s.e.m., n=4. *P<0.01 vs sham saline. **P<0.05 vs sham saline. #P<0.01. (F) Determination of caspase 3 activity in total left ventricular heart tissue samples. Mean±s.e.m., n=4. *P<0.05 vs sham saline. #P<0.01. (G) Model for CK2-alpha-prime-dependent regulation of cardiac hypertrophy through phosphorylation of p27. Hypertrophic signals stimulate CK2-alpha-prime kinase that phosphorylates p27 at S83 and T187. Phosphorylation of p27 impairs its ability to bind to and inhibit […] activity. Subsequently, p27 is proteasomally degraded allowing hypertrophic growth to proceed.
Next, the inventors examined the effect of transduced proteins on cardiac hypertrophy in p27^−/− mice. Elimination of p27 gene function in these animals completely abrogated the ability of kd.CK2-alpha-prime to block cardiac hypertrophy (FIG. 6A-D). In contrast, hypertrophic responses to Ang II were abolished by p27deltaPi injections. Thus, reconstitution of p27 protein abundance in the myocardium of p27^−/− mice was accompanied by inhibition of Ang II action. Moreover, the inventors observed a marked increase in the number of TUNEL-positive cardiomyocyte nuclei in Ang II-infused p27^−/− mice (FIG. 6E,F) as compared to the WT controls. […] This was in direct contrast to the effect seen by ectopic kd.CK2-alpha-prime consistent with the inventors' previous work showing that CK2 is cardioprotective^73,74.
as §1

The mark [1] stands for this setting: Ang infusion 1.4 μg/kg per minute 14 days, TAT.protein 10 mg/kg i.p. once daily.
Setting [2] is: saline infusion, TAT.protein 10 mg/kg i.p. once daily 14 days.

Marks after values point to notes of the source that are not given here.

B1: kd.CK2-α′: catalytically-inactive kinase-dead CK2-alpha-prime, point mutation K69M; TAT-conjugated protein in mice, lentivirally expressed in cardiomyocytes (protein)
chain: MPGPAAGSRARVYAEVNSLRSREYWDYEAHVPSWGNQDDYQLVRKLGRGKYSEVFEAINITNNERVVVMILKPVKKKKIKREVKILENLRGGTNIIKLIDTVKDPVSKTPALVFEYINNTDFKQLYQILTDFDIRFYMYELLKALDYCHSKGIMHRDVKPHNVMIDHQQKKLRLIDWGLAEFYHPAQEYNVRVASRYFKGPELLVDYQMYDYSLDMWSLGCMLASMIFRREPFFHGQDNYDQLVRIAKVLGTEELYGYLKKYHIDLDPHFNDILGQHSRKRWENFIHSENRHLVSPEALDLLDKLLRYDHQQRLTAKEAMEHPYFYPVVKEQSQPCADNAVLSSGLTAAR
modifications: left off: small tags and cut ends
notes: TAT-conjugated protein in mice, lentivirally expressed in cardiomyocytes
As to B1, the “cardiac hypertrophy to Ang II (heart/body weight ratio, myocyte area, ANF/BNP mRNA)” value in the experiment on WT mice (Ang II-treated WT mice, TAT.proteins 10 mg/kg i.p. once daily 14 days) was “abrogate cardiac hypertrophy”. The “Ang II-induced CK2-alpha-prime activity (left ventricular immunocomplex kinase assay)” value with WT mice (Ang II-treated WT mice, left ventricular extracts) is “abolished”. For the same molecule, in the experiment on WT mice (setting [1]), the FS is 38 ± 2.6** %, the LVEDD was 3.8 ± 0.2** mm, the LVEF is listed as 71 ± 2.3** % and the LVESD was 1.3 ± 0.1** mm. The PWD in the experiment with WT mice (setting [1]) was 0.7 ± 0.2** mm. In the experiment with WT mice (setting [2]), the LVEDD came out at 3.7 ± 0.2 mm, the LVEF stood at 71 ± 2.4%, the LVESD came out at 1.4 ± 0.2 mm and the PWD is on record as 0.7 ± 0.1 mm. Moreover, in the experiment on WT mice (saline infusion, TAT.protein 10 mg/kg i.p. once daily 14 days, 8-weeks of age), the FS was 40 ± 1.5%. Further, the “cardiac hypertrophy / hypertrophic responses to Ang II” value with p27 KO mice (Ang II-infused p27−/− mice, TAT.proteins 10 mg/kg i.p. once daily) was “fails to inhibit cardiac hypertrophy”. Moreover, in the experiment with p27 KO mice (setting [1]), the FS is on record as 52 ± 1.9* %, the LVEDD is 4.5 ± 0.1* mm, the LVEF is on record as 83 ± 2.8* % and the LVESD is 2.1 ± 0.2* mm. In addition, the PWD with p27 KO mice (setting [1]) is given as 1.2 ± 0.1* mm. Further, in the experiment with p27 KO mice (setting [2]), the FS was 39 ± 2.6%, the LVEDD worked out at 3.8 ± 0.2 mm, the LVEF is 69 ± 2.3% and the LVESD is 1.3 ± 0.1 mm. The same molecule gave a PWD with p27 KO mice (setting [2]) of 0.7 ± 0.2 mm.
